Data from paper PMC10801861, “Elf1 promotes Rad26’s interaction with lesion-arrested Pol II for transcription-coupled repair” (Proceedings of the National Academy of Sciences of the …, 2024).

B1: Rad26 (wild type) (enzyme, S. cerevisiae)
chain: MEDKEQQDNAKLENNESLKDLGVNVLSQSSLEEKIANDVTNFSNLQSLQQEETRLERSKTALQRYVNKKNHLTRKLNNTTRISVKQNLRDQIKNLQSDDIERVLKDIDDIQSRIKELKEQVDQGAENKGSKEGLQRPGETEKEFLIRTGKITAFGHKAGFSLDTANREYAKNDEQKDEDFEMATEQMVENLTDEDDNLSDQDYQMSGKESEDDEEEENDDKILKELEDLRFRGQPGEAKDDGDELYYQERLKKWVKQRSCGSQRSSDLPEWRRPHPNIPDAKLNSQFKIPGEIYSLLFNYQKTCVQWLYELYQQNCGGIIGDEMGLGKTIQVIAFIAALHHSGLLTGPVLIVCPATVMKQWCNEFQHWWPPLRTVILHSMGSGMASDQKFKMDENDLENLIMNSKPSDFSYEDWKNSTRTKKALESSYHLDKLIDKVVTDGHILITTYVGLRIHSDKLLKVKWQYAVLDEGHKIRNPDSEISLTCKKLKTHNRIILSGTPIQNNLTELWSLFDFIFPGKLGTLPVFQQQFVIPINIGGYANATNIQVQTGYKCAVALRDLISPYLLRRVKADVAKDLPQKKEMVLFCKLTKYQRSKYLEFLHSSDLNQIQNGKRNVLFGIDILRKICNHPDLLDRDTKRHNPDYGDPKRSGKMQVVKQLLLLWHKQGYKALLFTQSRQMLDILEEFISTKDPDLSHLNYLRMDGTTNIKGRQSLVDRFNNESFDVFLLTTRVGGLGVNLTGANRIIIFDPDWNPSTDMQARERAWRIGQKREVSIYRLMVGGSIEEKIYHRQIFKQFLTNRILTDPKQKRFFKIHELHDLFSLGGENGYSTEELNEEVQKHTENLKNSKSEESDDFEQLVNLSGVSKLESFYNGKEKKENSKTEDDRLIEGLLGGESNLETVMSHDSVVNSHAGSSSSNIITKEASRVAIEAVNALRKSRKKITKQYEIGTPTWTGRFGKAGKIRKRDPLKNKLTGSAAILGNITKSQKEASKEARQENYDDGITFARSKEINSNTKTLENIRAYLQKQNNFFSSSVSILNSIGVSLSDKEDVIKVRALLKTIAQFDKERKGWVLDEEFRNNNAS
notes: Rad26, S. cerevisiae ortholog of human CSB, Swi2/Snf2 family ATPase; also called Rad26(WT); yeast ortholog of CSB; source: E. coli Rosetta 2(DE3), purified (Ni-NTA agarose, Hi-Trap Heparin HP, Superdex 200)
B2: Rpb4/7 heterodimer of S. cerevisiae RNA polymerase II (complex)
chain 1: MNVSTSTFQTRRRRLKKVEEEENAATLQLGQEFQLKQINHQGEEEELIALNLSEARLVIKEALVERRRAFKRSQKKHKKKHLKHENANDETTAVEDEDDDLDEDDVNADDDDFMHSETREKELESIDVLLEQTTGGNNKDLKNTMQYLTNFSRFRDQETVGAVIQLLKSTGLHPFEVAQLGSLACDTADEAKTLIPSLNNKISDDELERILKELSNLETLY
chain 2: MFFIKDLSLNITLHPSFFGPRMKQYLKTKLLEEVEGSCTGKFGYILCVLDYDNIDIQRGRILPTDGSAEFNVKYRAVVFKPFKGEVVDGTVVSCSQHGFEVQVGPMKVFVTKHLMPQDLTFNAGSNPPSYQSSEDVITIKSRIRVKIEGCISQVSSIHAIGSIKEDYLGAI
notes: Rpb4 subunit of S. cerevisiae RNA polymerase II; Rpb7 subunit of S. cerevisiae RNA polymerase II; In the structures it stood assembled into 12-subunit Pol II; also called Pol II stalk

Key:
[1] = biological target: S. cerevisiae 12-subunit RNA polymerase II (S. cerevisiae) (UniProt P04050); assay: mass photometry; 12-subunit CPD-arrested Pol II complex (EC, on DNA/RNA scaffold) mixed with an equimolar amount of Rad26, diluted to 2, 5, 15 and 20 nM, with additional Elf1 (final 500 nM), incubated 20 min; Kd from particle counts, 12 reads
[2] = biological target: S. cerevisiae 12-subunit RNA polymerase II (S. cerevisiae) (UniProt P04050); assay: mass photometry; 12-subunit CPD-arrested Pol II complex (EC, on DNA/RNA scaffold) mixed with an equimolar amount of Rad26, diluted to 5, 10, 15 and 25 nM, incubated 20 min; no Elf1; Kd from particle counts, 12 reads
[3] = biological target: T1, Rpb2 subunit of S. cerevisiae RNA polymerase II (S. cerevisiae, UniProt P08518 1-1224); assay: cryo-EM structure; Pol II(CPD)-Rad26 with 10-subunit Pol II lacking Rpb4/7, CPD lesion scaffold; 4.7 A; settings: both partners purified
T1 construct: Rpb2, second largest subunit of S. cerevisiae RNA polymerase II, within the assembled polymerase; Seen only as a subunit of Pol II in the structures

[4] = biological target: T2, Rpb1 subunit of S. cerevisiae RNA polymerase II (S. cerevisiae, UniProt P04050 1-1733); assay: as above; settings: both partners purified
T2 construct: Rpb1, largest subunit of S. cerevisiae RNA polymerase II, within the assembled polymerase; Seen only as a subunit of Pol II in the structures

Rad26 (wild type) = biological target: B1; assay: cryo-EM structure; Pol II(CPD)-Rad26-Elf1 (Closed state): Elf1 incubated with the Pol II(CPD)-Rad26 complex; 1 uM Pol II, 2 uM Rad26, 1.1 uM scaffold, 5 uM Elf1; 3.1 A; settings: both partners purified

T1 sequence (P08518 whole entry): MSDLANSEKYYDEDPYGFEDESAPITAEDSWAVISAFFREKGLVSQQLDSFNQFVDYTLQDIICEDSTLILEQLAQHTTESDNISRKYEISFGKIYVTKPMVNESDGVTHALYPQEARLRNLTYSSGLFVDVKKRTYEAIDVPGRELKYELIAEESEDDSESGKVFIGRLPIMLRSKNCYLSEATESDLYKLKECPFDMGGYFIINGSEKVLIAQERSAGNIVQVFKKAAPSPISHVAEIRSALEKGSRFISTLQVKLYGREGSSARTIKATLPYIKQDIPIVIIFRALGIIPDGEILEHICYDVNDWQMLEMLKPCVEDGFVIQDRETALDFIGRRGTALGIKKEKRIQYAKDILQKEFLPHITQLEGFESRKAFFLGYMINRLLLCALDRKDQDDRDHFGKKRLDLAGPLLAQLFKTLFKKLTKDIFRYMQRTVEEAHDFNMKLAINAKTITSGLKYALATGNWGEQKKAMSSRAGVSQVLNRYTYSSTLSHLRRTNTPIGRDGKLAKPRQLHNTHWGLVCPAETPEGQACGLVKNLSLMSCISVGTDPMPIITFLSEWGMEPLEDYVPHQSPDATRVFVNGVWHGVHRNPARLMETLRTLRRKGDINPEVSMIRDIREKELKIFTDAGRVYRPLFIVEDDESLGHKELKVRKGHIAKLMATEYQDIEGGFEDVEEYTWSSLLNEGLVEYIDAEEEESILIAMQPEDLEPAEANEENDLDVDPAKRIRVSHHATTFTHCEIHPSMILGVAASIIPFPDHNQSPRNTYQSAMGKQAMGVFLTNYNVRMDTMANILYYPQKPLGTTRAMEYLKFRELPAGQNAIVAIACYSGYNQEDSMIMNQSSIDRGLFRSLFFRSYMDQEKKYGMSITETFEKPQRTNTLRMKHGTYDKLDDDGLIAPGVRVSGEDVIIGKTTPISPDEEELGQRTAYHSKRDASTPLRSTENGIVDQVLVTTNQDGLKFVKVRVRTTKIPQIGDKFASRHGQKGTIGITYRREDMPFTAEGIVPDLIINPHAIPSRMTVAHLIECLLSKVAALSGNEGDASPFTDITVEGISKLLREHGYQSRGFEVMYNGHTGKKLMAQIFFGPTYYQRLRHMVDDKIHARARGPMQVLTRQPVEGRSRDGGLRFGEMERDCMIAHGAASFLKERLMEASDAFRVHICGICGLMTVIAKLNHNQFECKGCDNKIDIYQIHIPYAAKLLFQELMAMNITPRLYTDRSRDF
T2 sequence (P04050 whole entry): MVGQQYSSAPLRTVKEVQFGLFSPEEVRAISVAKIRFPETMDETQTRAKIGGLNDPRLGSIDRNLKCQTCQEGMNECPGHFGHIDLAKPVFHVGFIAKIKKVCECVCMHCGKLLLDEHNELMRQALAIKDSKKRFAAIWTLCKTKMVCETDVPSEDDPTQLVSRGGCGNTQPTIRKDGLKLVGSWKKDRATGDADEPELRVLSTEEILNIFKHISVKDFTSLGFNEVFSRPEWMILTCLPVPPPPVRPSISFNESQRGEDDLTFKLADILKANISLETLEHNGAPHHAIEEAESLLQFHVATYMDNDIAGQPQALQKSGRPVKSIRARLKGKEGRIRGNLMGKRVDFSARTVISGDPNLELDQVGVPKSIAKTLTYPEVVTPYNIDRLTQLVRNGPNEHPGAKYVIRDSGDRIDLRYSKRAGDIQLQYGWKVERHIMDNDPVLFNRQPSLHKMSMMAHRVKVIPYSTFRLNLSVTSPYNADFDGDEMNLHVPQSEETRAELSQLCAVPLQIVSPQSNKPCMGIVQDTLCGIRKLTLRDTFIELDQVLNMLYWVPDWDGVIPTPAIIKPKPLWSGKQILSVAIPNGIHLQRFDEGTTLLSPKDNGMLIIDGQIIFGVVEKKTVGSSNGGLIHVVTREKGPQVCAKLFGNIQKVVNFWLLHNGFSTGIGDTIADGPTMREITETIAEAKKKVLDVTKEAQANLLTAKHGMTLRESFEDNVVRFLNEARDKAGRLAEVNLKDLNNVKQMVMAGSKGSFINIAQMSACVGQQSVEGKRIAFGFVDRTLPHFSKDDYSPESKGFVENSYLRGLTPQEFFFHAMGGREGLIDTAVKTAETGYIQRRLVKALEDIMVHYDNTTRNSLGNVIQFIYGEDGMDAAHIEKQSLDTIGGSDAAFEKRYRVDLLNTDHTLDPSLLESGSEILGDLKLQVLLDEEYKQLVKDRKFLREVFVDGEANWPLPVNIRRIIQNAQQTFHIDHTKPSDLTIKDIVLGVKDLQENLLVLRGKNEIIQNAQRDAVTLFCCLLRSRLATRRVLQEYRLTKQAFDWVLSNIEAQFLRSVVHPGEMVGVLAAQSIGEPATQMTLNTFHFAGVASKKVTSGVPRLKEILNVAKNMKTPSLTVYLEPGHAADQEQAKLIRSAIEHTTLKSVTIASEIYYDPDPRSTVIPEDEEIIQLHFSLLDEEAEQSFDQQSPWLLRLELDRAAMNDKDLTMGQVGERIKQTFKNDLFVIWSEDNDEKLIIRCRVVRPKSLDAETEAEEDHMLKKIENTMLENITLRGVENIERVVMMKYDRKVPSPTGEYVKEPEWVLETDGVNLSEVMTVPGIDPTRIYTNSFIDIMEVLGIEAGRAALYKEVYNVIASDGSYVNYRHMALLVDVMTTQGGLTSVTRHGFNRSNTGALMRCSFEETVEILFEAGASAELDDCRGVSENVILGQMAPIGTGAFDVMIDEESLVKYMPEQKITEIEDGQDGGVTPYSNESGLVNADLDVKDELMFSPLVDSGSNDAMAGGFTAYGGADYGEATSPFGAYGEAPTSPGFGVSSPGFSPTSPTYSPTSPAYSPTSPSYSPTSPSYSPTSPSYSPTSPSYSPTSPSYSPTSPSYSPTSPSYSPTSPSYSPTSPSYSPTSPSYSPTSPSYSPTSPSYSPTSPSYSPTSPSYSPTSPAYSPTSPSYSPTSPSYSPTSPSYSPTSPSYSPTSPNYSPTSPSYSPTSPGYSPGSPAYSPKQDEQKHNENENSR

Binder	Kd [1]	Kd [2]	binding result [3]	binding result [4]	binding result (Rad26 (wild type))
B1	9 nM	23 nM	binds	binds	–
B2	–	–	–	–	binds
